Reference: article PMC3075667

Assays:
Δ79AAG wild type (human) [1] = biological target: Δ79AAG wild type (human) (UniProt P29372); test: competition
Δ79AAG wild type (human) [2] = biological target: Δ79AAG wild type (human) (UniProt P29372); test: EMSA
[3] = 3,N4-ethenocytosine opposite G (G19)

Sequence of UniProt P29372 (P29372 84-298, stated change not applied): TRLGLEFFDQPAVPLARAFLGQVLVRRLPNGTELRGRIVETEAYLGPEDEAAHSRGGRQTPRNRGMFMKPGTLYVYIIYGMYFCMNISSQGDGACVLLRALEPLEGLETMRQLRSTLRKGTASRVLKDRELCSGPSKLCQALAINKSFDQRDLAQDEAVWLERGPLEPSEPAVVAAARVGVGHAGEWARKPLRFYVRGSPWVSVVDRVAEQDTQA

Substance | IC50 (Δ79AAG wild type (human) [1]; 1,N6-ethenoadenine opposite T) | Kd (Δ79AAG wild type (human) [2]; 1,N6-ethenoadenine opposite T) | IC50 (Δ79AAG wild type (human) [1]; [3]) | Kd (Δ79AAG wild type (human) [2]; [3])
ϵA:T 13-mer | 163 nM | 46 nM |  | 
ϵC:G 13-mer |  |  | 39 nM | 21 nM
